Measurements from publication PMC7185714, “Structure and conformational cycle of a bacteriophage-encoded chaperonin” (PLoS ONE, 2020).

Assays:
GroEL from E. coli [1] = target: T1, GroEL from E. coli (E. coli, UniProt P0A6F5 1-548)
[2] = target: chaperonin gp146 (ɸEL) from the phage EL of Pseudomonas aeruginosa (Pseudomonas bacteriophage EL)
ɸEL (gp146) [3] = target: T2, ɸEL (gp146) (Pseudomonas phage EL, UniProt Q2Z0T5); assay: cryo-EM structure ([…] Å); assay type: binding; settings: double ring, D7, pH 7.5, Mg2+; slowly hydrolysed ATP analogue; pseudo-atomic model
T2 construct: tetradecameric double ring (~863 kDa) or single-ring heptamer (~431 kDa, with ATP and in the crystals)
T2 sequence (Q2Z0T5 1-558): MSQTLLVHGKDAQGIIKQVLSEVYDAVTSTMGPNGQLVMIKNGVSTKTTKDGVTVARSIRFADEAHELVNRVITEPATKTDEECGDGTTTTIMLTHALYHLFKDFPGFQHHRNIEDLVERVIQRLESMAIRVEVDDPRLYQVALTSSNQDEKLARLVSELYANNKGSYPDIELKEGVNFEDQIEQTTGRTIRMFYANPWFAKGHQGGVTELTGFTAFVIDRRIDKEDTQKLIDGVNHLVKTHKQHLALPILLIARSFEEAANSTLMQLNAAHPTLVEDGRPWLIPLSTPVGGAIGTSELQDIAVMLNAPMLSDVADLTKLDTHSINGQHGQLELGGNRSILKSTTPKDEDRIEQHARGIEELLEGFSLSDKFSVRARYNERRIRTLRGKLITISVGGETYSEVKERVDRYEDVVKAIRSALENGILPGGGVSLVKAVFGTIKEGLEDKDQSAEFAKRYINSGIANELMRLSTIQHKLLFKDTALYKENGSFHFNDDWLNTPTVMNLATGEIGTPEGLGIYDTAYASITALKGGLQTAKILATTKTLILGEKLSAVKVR

[4] = target: chaperonin gp146 (ɸEL) from the phage EL of Pseudomonas aeruginosa (Pseudomonas bacteriophage EL); assay: cryo-EM structure; ɸEL with ADP, single particle analysis, D7 symmetry, 5.9 Å
[5] = target: chaperonin gp146 (ɸEL) from the phage EL of Pseudomonas aeruginosa (Pseudomonas bacteriophage EL); assay: cryo-EM structure; ɸEL with ATPγS, single particle analysis, D7 symmetry, 5.8 Å
[6] = target: chaperonin gp146 (ɸEL) from the phage EL of Pseudomonas aeruginosa (Pseudomonas bacteriophage EL); assay: cryo-EM structure; apo-ɸEL, no nucleotide, single particle analysis, C2 symmetry, 3.45 Å
[7] = target: chaperonin gp146 (ɸEL) from the phage EL of Pseudomonas aeruginosa (Pseudomonas bacteriophage EL); assay: SEC-MALS; ɸEL at 2 g/L, with 2 mM ATP, 20 mM HEPES-NaOH pH 7.5, 50 mM KCl, 4 mM Mg acetate, 25°C
[8] = target: chaperonin gp146 (ɸEL) from the phage EL of Pseudomonas aeruginosa (Pseudomonas bacteriophage EL); assay: SEC-MALS; ɸEL at 2 g/L, with 2 mM ATP, 20 mM HEPES-NaOH pH 7.5, 100 mM KCl, 2 mM Mg acetate, 25°C
[9] = target: chaperonin gp146 (ɸEL) from the phage EL of Pseudomonas aeruginosa (Pseudomonas bacteriophage EL); assay: crystal structure; ɸEL crystallised with 2 mM ATP, 5 mM BeSO4 and 20 mM NaF; crystal forms I (4.03 Å) and II (3.54 Å)
[10] = target: chaperonin gp146 (ɸEL) from the phage EL of Pseudomonas aeruginosa (Pseudomonas bacteriophage EL); assay: SEC-MALS; ɸEL at 2 g/L, no nucleotide, 20 mM HEPES-NaOH pH 7.5, 100 mM KCl, 2 mM Mg acetate (also run at 50 mM KCl), 25°C
[11] = target: chaperonin gp146 (ɸEL) from the phage EL of Pseudomonas aeruginosa (Pseudomonas bacteriophage EL); assay: SEC-MALS; ɸEL at 2 g/L, with 2 mM ADP, 20 mM HEPES-NaOH pH 7.5, 100 mM KCl, 2 mM Mg acetate (also run at 50 mM KCl), 25°C
ɸEL (gp146) [12] = target: T2, ɸEL (gp146); assay: X-ray crystal structure ([…] Å, crystal form I); assay type: binding; settings: ATP added with BeSO4/NaF; ATP and ADP-BeFx not distinguishable, modelled as ATP with Mg2+; single-ring heptamer, equatorial domain site; also in form II (6TMU, 3.54 Å; chains A, C, E, G)
GroEL = target: T3, GroEL (Escherichia coli, UniProt P0A6F5); assay: NADH-coupled ATPase assay; assay type: biochemical; settings: 1 mM ATP, 50 mM Tris-HCl pH 7.5, 10 or 100 mM KCl, 10 mM MgCl2, 25°C; without GroES; rates only in figure
T3 construct: purified GroEL tetradecamer; source and preparation not described

ɸEL (gp146) [13] = target: T2, ɸEL (gp146); assay: cryo-EM structure ([…] Å); assay type: binding; settings: double ring, D7, pH 7.5, Mg2+; pseudo-atomic model; ADP also modelled in crystal form II (6TMU, chains B, D, F, partial occupancy)
GroEL from E. coli [14] = target: T1, GroEL from E. coli; assay: cell-based or functional assay
[15] = substrate: Nc1ncnc2c1ncn2[C@@H]1O[C@H](COP(=O)(O)OP(=O)(O)OP(=O)(O)O)[C@@H](O)[C@H]1O; assay: NADH-coupled ATPase assay (pyruvate kinase/lactate dehydrogenase), Hill fit; assay type: biochemical, Pseudomonas phage EL; settings: high salt: 50 mM Tris-HCl pH 7.5, 100 mM KCl, 10 mM MgCl2, 25°C, Hill coefficient fitted

T1 sequence (P0A6F5 whole entry): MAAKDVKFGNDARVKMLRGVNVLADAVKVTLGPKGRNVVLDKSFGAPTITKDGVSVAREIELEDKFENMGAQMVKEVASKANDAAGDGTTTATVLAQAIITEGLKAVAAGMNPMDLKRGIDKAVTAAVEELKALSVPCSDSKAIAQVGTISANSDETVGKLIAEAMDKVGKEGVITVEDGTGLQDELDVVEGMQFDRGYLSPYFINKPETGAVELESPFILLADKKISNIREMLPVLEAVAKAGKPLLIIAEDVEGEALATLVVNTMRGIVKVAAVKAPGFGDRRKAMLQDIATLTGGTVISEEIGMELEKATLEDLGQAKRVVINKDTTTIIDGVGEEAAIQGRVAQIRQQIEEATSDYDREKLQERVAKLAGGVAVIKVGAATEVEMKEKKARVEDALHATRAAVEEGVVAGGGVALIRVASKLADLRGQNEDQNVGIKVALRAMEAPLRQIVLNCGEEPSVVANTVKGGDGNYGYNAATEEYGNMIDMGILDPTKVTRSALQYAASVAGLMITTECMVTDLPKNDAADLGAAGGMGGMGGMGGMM
T3 sequence (P0A6F5 2-548): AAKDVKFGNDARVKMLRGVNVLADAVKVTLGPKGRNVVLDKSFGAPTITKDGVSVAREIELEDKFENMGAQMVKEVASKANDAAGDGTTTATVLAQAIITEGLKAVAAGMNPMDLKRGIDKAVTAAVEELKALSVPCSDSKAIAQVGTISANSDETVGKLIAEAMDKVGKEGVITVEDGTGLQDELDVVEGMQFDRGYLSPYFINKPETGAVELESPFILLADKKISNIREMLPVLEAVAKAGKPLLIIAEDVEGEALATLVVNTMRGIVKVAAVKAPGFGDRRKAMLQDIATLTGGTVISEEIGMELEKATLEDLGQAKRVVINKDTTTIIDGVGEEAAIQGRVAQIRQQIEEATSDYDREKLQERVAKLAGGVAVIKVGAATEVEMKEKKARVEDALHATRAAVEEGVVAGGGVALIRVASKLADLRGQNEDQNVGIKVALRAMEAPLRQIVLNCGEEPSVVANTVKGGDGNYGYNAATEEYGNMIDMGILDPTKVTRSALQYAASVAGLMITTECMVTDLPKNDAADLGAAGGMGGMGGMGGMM

**Q.** How did the GroEL ATPase activity with denatured DM-MBP, at 10 and 100 mM KCl, 1 mM ATP (GroEL from E. coli [1]) turn out when “double mutant of maltose binding protein (DM-MBP), denatured (from UniProt P0AEX9 27-396) (natural protein)” was run?
**A.** 2 fold

**Q.** What about the decrease in ɸEL ATPase activity with denatured DM-MBP, at 10 mM KCl, 1 mM ATP [2] of the same molecule?
**A.** 60%

**Q.** How did the “cryo-EM structure (5.8 Å)” value (ɸEL (gp146) [3]) turn out when Nc1ncnc2c1ncn2[C@@H]1O[C@H](COP(=O)(O)OP(=O)(O)OP(O)(O)=S)[C@@H](O)[C@H]1O [ATPγS] was run?
**A.** we also determined the cryo-EM structure of ɸEL in the presence of the slowly hydrolyzing

**Q.** Which results are given for “chaperonin gp146 (ɸEL) from the phage EL of Pseudomonas aeruginosa (natural protein)”?
**A.** stoichiometry N [4]: 14; stoichiometry N [5]: 14; stoichiometry N [6]: 14; stoichiometry N [7]: 14; stoichiometry N [8]: 7; stoichiometry N [9]: 7; stoichiometry N [10]: 14; stoichiometry N [11]: 14

**Q.** Which results are given for Nc1ncnc2c1ncn2[C@@H]1O[C@H](COP(=O)(O)OP(=O)(O)OP(=O)(O)O)[C@@H](O)[C@H]1O [ATP]?
**A.** X-ray crystal structure (4.03 Å, crystal form I) (ɸEL (gp146) [12]): All subunits as judged from the electron density had either ATP or ADP•BeFX bound; NADH-coupled ATPase assay (GroEL): ATPase activity of GroEL and ɸEL in presence and absence of a two-fold excess

**Q.** For Nc1ncnc2c1ncn2[C@@H]1O[C@H](COP(=O)(O)OP(=O)(O)O)[C@@H](O)[C@H]1O [ADP], which “cryo-EM structure (5.9 Å)” value (ɸEL (gp146) [13]) is on record?
**A.** we determined the solution structure of ɸEL in the presence of ADP by single-particle cryo-EM

B1: E. coli GroES (natural protein)
chain: MNIRPLHDRVIVKRKEVETKSAGGIVLTGSAAAKSTRGEVLAVGNGRILENGEVKPLDVKVGDIVIFNDGYGVKSEKIDNEEVLIMSESDILAIVEA
**Q.** How did the “decrease in GroEL ATPase activity with a 2-fold molar excess of GroES, at 10 and 100 mM KCl, 1 mM ATP” value (GroEL from E. coli [14]) turn out when B1 was run?
**A.** ~50%

B2: ɸEL (gp146) (Pseudomonas phage EL) (protein)
chain: T2 sequence (Q2Z0T5 1-558)
notes: tetradecameric double ring (~863 kDa) or single-ring heptamer (~431 kDa, with ATP and in the crystals)
**Q.** Which Km [15] does the source give for B2 here?
**A.** 72 ± 8 µM

**Q.** What about the kcat [15] of the same molecule?
**A.** 9.6 ± 0.12 s⁻¹ (per tetradecamer)
